Laboratory results published in article PMC8519433.

Legend:
[1] = target: human CXCR1 on transfected L1.2 cells (human) (UniProt P25024)
[2] = target: CXCL8 (6-77), produced in-house (human); test: SEC-MALS; CXCL8 at 4.2 mg/ml (0.5 mM), Superdex 75 10/300 GL, 20 mM Na phosphate pH 6.5, 100 mM NaCl, room temperature; a single species

Chain of human CXCR1 on transfected L1.2 cells (human) (P25024 whole entry): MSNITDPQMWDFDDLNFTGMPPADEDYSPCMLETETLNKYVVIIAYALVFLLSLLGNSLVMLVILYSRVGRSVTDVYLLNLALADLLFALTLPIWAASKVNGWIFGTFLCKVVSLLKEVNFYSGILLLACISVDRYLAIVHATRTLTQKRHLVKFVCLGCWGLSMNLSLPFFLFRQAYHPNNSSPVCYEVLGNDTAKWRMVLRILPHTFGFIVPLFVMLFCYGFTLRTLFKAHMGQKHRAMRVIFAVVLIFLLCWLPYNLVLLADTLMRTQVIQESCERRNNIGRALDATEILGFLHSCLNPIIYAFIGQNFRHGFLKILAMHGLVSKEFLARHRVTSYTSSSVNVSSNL

CXCL8 (6-77), produced in-house (ligand)
chemotaxis of CXCR1-transfected L1.2 cells (modified Boyden chamber, 5 h), serial dilutions of CXCL8, bell-shaped response; percentage of cells migrated at the optimal concentration [1]: 20% | stoichiometry N [2]: 2

Recombinant CXCL8 (6-77), commercially available (ligand)
chemotaxis of CXCR1-transfected L1.2 cells (modified Boyden chamber, 5 h), serial dilutions of CXCL8, bell-shaped response; percentage of cells migrated at the optimal concentration [1]: 20%
